In US6017743A, “Siaα 2,3, Galβ 1, 4Glc NAcα 2,8-sialyltransferase” (The Institute of Physical and Chemical Research, priority 1995, dated 2000):

Columns and labels:
[1] = target: T1, mouse Siaα 2,3Galβ 1,4GlcNAc α 2,8-sialyltransferase O3 (ST8Sia III), protein A-fused soluble enzyme, SEQ. ID. No.3 (active domain of SEQ. ID. No.1) (Mus musculus, UniProt Q64689); test: Kinetic properties of the sialyltransferase of the present invention (sialyltransfer from CMP-[14C]NeuAc to glycolipid acceptors, HPTLC/radio image analysis); format: biochemical; settings: acceptor substrate, Table 2
T1 construct: ID; No.3 and 4, respectively; IgM signal peptide (N); made in house; host or cells: COS-7 cells (transient transfection with pcDSA-O3; secreted into the medium, adsorbed to IgG-Sepharose)
T1 sequence (Q64689 42-380): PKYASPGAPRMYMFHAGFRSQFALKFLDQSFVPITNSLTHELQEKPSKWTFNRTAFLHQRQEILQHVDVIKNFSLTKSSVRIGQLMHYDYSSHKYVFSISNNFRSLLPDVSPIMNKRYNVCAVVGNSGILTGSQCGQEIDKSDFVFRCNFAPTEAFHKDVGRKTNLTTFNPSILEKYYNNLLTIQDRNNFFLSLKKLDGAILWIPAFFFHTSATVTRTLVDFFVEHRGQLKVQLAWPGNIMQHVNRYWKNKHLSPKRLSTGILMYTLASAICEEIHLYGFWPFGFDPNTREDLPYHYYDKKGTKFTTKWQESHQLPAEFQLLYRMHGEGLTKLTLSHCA
Description: To facilitate functional analysis of the sialyltransferase of the present invention, expression plasmid pcDSA-O3 was constructed and transfected into COS-7 cells, and the protein A fused-protein containing an active domein of the sialyltransferase of the present invention (i.e. a soluble enzyme; hereinafter referred to as the fused protein of the present invention) was adsorbed to IgG-Sepharose in the medium and used as the enzyme source. The amino acid sequence of the fused protein and the gene encoding the fused protein are shown as SEQ. ID. No.3 and 4, respectively.
A truncated form of the sialyltransferase of the present invention (ST8Sia-III), lacking the first 39 amino acids of the open reading frame, was prepared by PCR amplification with 5'- and 3'-primers containing a XhoI site, respectively (5'-CATCTTCTCGAGTCCC AAGTACGCCAGCCCG-3' and 5'-[…]-3'). […]
The single insertion in the correct orientation was finally analyzed by restriction enzyme treatment and DNA sequencing. […]
For glycolipid acceptors, the incubation mixtures were applied on a C-18 column (Sep-Pak Vac, 100 mg; Waters, Milford, Mass., U.S.A.) which was washed with water. […] The radioactive materials in glycoproteins or glycolipids were visualized with a BAS2000 radio image analyzer (Fuji Film, Japan), and the radioactivity incorporated into acceptor glycoproteins was counted.

fetuin [2] = target: fetuin
[3] = target: asialo-α1-acid glycoprotein
[4] = target: transferrin (bovine) (bovine) (UniProt Q29443)
[5] = target: bovine submaxillary mucin (bovine)
fetuin [6] = target: fetuin; remark: listed apart in the source

Km ([1]; 0.1 M sodium cacodylate pH 6.0, 37° C., CMP-[14C]NeuAc donor) [µM]	Vmax [1]	sialyltransferase activity toward the acceptor (pmol/ml medium, h) (pmol/ml medium, h) (fetuin [2])	sialyltransferase activity toward the acceptor (pmol/ml medium, h) (pmol/ml medium, h) (asialofetuin)	sialyltransferase activity toward the acceptor (pmol/ml medium, h) (pmol/ml medium, h) [3]	sialyltransferase activity toward the acceptor (pmol/ml medium, h) (pmol/ml medium, h) (ovomucoid)	sialyltransferase activity toward the acceptor (pmol/ml medium, h) (pmol/ml medium, h) (α1-acid glycoprotein)	sialyltransferase activity toward the acceptor (pmol/ml medium, h) (pmol/ml medium, h) [4]	sialyltransferase activity toward the acceptor (pmol/ml medium, h) (pmol/ml medium, h) [5]	Km (fetuin [6]) [µM]	Substance
82	9.2 pmol/h,ml	–	–	–	–	–	–	–	–	Siaα 2,3Galβ 1,4GlcNAc β 1,4Galβ 1,4Glcβ1,1Cer [2,3-SPG]
–	–	92.1	< 0.1	< 0.1	1.7	7.8	1.3	< 0.1	20	protein A-fused soluble enzyme containing an active domain of Siaα2,3Galβ1,4GlcNAc α2,8-sialyltransferase O3 (mouse ST8Sia-III)
–	–	8	< 0.1	< 0.1	1.3	7.6	0.38	< 0.1	–	mouse ST8Sia II (STX) (from UniProt O35696) (enzyme)
–	–	< 0.01	< 0.01	< 0.01	< 0.01	< 0.01	< 0.01	< 0.01	–	human ST8Sia I (GD3 synthase) expressed by Namalwa cells (from UniProt Q92185) (enzyme)
